Columns and labels:
s10_(long) H199Y/T203F = test: peptide or protein array
s10_(long) H199Y = test: peptide or protein array
s10_(long) H199Y/L207V = test: peptide or protein array
[1] = target: s10_(long) WT peptide L195[…]212; test: peptide or protein array
[2] = target: LOO10-GFP (circularly permuted superfolder GFP with strand 10 removed); test: other fluorescence titration
[3] = target: LOO10-GFP (circularly permuted superfolder GFP with strand 10 removed); test: fluorescence complementation
[4] = target: LOO10-GFP (circularly permuted superfolder GFP with strand 10 removed); test: competition experiment followed by fluorescence

LOO10-GFP (circularly permuted superfolder GFP with strand 10 removed) (domain or fragment)
fold microarray fluorescence compared to WT (s10_(long) H199Y/T203F): 54 fold
fold microarray fluorescence compared to WT (s10_(long) H199Y): 10 fold
fold microarray fluorescence compared to WT (s10_(long) H199Y/L207V): 3 fold
mean microarray fluorescence [1]: 741 FU

NYYLSYQTVLS [s10_(short) H199Y/T203Y peptide]
fold increase in affinity compared to WT [2]: 9 fold

NHYLSYQTVLS [s10_(short) T203Y peptide]
fold increase in affinity compared to WT [2]: 2 fold

NYYLSTQTVLS [s10_(short) H199Y peptide]
fold increase in affinity compared to WT [2]: 5 fold

NHYLSTQTVLS [s10_(short) WT peptide N198…208]
fold increase in 520 nm signal on complementation [3]: 5 fold

LPDNHYLSTQTVRSKDPNE [s10 L207R peptide, long format (free 19-mer)]
fold weaker affinity than WT (approximated) [4]: > 10 fold
